{
  "source": "patent US20110165564",
  "about": "“SEQUENCE-SPECIFIC DETECTION OF METHYLATION IN BIOMOLECULES” (MAX-PLANCK-GESELLSCHAFT ZUR FÖRDERUNG DER …, published 2011)",
  "target": "T1, M.HhaI (DNA cytosine-5 methyltransferase) (Haemophilus haemolyticus, UniProt P05102 P05102:1-327)",
  "T1 sequence": "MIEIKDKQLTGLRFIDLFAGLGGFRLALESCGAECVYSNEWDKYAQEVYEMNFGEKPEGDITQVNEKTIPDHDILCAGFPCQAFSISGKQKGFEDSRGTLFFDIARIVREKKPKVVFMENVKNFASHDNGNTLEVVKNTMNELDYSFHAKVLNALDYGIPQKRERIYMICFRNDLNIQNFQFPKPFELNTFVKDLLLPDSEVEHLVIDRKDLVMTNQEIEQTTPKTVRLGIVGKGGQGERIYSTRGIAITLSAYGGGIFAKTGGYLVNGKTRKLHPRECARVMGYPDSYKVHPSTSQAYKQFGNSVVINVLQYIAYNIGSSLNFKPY",
  "test": "anion exchange HPLC; coupling of aziridine cofactors 1, 2, 3 almost complete; non-covalent M.HhaI-product DNA complex; 10 mM Tris pH 7.4, 50 mM NaCl, 37 C",
  "method": "Solutions (400 μL) of aziridine cofactor 1, 2 or 3 (32 nmol, 80 μM), duplex oligodeoxynucleotide I-II (4 nmol, 10 μM) and M.HhaI (4.4 nmol, 11 μM) in buffer (10 mM Tris hydrochloride, pH 7.4, 50 mM sodium chloride, 0.05 mM ethylenediaminetetraacetic acid and 2 mM β-mercaptoethanol) were incubated at 37° C. The progress of the coupling reactions was monitored by anion exchange HPLC (Poros 10 HQ, 10 μm, 4.6×10 mm, Applied Biosystems). Compounds were eluted with aqueous potassium chloride (0.2 M for 5 min, followed by linear gradients to […], to 0.6 M in 20 min and to 1 M in 5 min) in Tris hydrochloride buffer (10 mM, pH 7.6) at a flow of 4 mL/min. […] These new compounds are assigned to non-covalent protein-DNA complexes between M.HhaI and the coupling products I¹-II, I²-II and I³-II based on their UV absorption ratio at 260 nm and 280 nm.\nThe presence and functionality of biotin groups in I¹-II, I²-II and I³-II were verified by addition of streptavidin. Residual aziridine cofactors 1, 2 or 3 were first removed from the labelled duplexes I¹-II, I²-II or I³-II by gel filtration using NAP-5 columns (Amersham Biosciences, Freiburg, Germany) according to the instructions of the supplier. Afterwards, streptavidin (25 μg) was added to the solutions (25 μL, 0.25 nmol I¹-II, I²-II or I³-II) and incubation was performed at 37° C. for 30 min.",
  "data": [
    {"binder": "duplex I-II (hemimethylated) (dsDNA, 5mC at M in lower strand 5'-…-3') DNA 1: TGTCAGCGCATGA DNA 2: TCATGCGCTGACA", "values": [
      {"measurement": "binding result", "value": "binds"}
    ]}
  ]
}
